Patent US20150291695A1 (CANCER RESEARCH TECHNOLOGY, published 2015)

Key:
[1] = molecular target: T1, αvβ6 integrin, immobilized (UniProt P06756 31-992; P18564 22-709); assay: ELISA on immobilized αvβ6, rabbit anti-MFE detection
T1 construct: also called immobilized αvβ6; rsαvβ6

[2] = molecular target: T2, carcinoembryonic antigen on LS-174T cells (human, UniProt P06731 35-702); assay: flow cytometry on LS174T cells
T2 construct: whole, on cells; also called CEA on LS174T cells; CEA-expressing LS-174T cells
T2 sequence: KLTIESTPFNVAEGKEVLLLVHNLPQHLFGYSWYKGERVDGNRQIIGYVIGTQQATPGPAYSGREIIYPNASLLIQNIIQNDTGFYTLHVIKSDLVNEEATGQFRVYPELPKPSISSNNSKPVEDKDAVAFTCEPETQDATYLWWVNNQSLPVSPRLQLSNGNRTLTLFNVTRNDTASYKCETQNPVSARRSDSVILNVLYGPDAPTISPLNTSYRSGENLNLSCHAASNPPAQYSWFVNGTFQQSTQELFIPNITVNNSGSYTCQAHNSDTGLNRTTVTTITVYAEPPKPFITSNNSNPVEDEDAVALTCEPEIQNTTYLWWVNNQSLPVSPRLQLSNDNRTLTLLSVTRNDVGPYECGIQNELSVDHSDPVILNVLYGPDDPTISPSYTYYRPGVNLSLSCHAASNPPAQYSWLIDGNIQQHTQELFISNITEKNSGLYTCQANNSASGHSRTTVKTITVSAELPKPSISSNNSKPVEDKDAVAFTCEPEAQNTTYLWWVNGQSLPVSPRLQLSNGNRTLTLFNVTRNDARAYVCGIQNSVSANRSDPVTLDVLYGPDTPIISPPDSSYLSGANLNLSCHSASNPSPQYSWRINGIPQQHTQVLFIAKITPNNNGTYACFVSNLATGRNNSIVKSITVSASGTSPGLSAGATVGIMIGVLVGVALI

[3] = molecular target: T3, αvβ3 integrin, immobilized (UniProt P06756 31-1048; P05106 27-788); assay: ELISA on immobilized αvβ3, rabbit anti-MFE detection
T3 construct: also called immobilized αvβ3

[4] = molecular target: T4, α5β1 integrin on A375Ppuro cells (UniProt P08648 42-1049; P05556 21-798); assay: flow cytometry on A375Ppuro cells, which express α5β1
T4 construct: whole, on cells

[5] = molecular target: T5, αvβ3 integrin on A375Ppuro cells (UniProt P06756 31-1048; P05106 27-788); assay: flow cytometry on A375Ppuro cells, which express αvβ3
T5 construct: whole, on cells
T5 sequence (P06756 31-1048, chain 1 of 2): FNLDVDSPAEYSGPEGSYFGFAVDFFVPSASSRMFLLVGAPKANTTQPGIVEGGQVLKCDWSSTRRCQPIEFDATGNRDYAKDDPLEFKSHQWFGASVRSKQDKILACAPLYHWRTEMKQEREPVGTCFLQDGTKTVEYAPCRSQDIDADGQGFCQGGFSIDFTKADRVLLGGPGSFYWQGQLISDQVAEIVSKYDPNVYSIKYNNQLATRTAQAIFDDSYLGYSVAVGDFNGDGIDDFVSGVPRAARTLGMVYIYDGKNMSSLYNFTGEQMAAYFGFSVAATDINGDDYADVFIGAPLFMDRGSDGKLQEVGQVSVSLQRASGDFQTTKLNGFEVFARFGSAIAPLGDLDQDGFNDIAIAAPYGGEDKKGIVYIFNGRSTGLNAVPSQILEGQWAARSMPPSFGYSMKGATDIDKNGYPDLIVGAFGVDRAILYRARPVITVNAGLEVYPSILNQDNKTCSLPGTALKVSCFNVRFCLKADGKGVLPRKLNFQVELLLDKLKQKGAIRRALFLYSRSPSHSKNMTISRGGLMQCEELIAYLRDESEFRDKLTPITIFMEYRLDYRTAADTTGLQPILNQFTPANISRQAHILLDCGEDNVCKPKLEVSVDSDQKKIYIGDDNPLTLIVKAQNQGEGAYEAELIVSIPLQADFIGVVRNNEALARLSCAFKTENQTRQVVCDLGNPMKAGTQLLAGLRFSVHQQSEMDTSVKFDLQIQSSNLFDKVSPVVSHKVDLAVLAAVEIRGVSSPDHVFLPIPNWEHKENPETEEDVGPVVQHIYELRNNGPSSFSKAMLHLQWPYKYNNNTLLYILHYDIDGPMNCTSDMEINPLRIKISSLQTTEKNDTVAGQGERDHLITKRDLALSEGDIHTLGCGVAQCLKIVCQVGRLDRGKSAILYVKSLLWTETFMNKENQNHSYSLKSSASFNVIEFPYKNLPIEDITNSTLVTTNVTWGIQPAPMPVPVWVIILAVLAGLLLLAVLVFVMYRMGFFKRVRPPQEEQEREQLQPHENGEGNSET
T5 sequence (P05106 27-788, chain 2 of 2): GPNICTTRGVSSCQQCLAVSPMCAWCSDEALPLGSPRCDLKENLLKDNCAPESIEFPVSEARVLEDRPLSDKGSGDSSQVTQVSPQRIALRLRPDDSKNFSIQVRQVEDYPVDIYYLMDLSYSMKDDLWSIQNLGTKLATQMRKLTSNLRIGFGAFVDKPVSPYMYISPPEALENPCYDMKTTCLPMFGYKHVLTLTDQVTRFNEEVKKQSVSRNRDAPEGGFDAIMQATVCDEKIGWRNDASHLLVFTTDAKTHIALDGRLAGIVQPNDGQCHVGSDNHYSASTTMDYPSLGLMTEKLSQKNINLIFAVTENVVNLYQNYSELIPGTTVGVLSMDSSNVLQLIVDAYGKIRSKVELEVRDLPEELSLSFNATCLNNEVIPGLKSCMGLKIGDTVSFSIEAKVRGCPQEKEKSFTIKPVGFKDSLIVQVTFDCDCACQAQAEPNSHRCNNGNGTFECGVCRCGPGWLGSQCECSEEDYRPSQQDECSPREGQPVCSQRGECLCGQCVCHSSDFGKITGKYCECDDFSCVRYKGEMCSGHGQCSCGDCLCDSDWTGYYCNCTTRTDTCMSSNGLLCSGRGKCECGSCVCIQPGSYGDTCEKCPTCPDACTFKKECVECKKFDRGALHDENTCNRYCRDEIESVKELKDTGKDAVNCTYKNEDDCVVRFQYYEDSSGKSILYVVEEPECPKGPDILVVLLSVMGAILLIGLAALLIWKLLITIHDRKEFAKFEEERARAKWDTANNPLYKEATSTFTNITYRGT

[6] = molecular target: T6, αvβ5 integrin on A375Ppuro cells (UniProt P06756 31-1048; P18084 24-799); assay: flow cytometry on A375Ppuro cells, which express αvβ5
T6 construct: whole, on cells
T6 sequence (P06756 31-1048, chain 1 of 2): as the sequence (P06756 31-1048, chain 1 of 2) above
T6 sequence (P18084 24-799, chain 2 of 2): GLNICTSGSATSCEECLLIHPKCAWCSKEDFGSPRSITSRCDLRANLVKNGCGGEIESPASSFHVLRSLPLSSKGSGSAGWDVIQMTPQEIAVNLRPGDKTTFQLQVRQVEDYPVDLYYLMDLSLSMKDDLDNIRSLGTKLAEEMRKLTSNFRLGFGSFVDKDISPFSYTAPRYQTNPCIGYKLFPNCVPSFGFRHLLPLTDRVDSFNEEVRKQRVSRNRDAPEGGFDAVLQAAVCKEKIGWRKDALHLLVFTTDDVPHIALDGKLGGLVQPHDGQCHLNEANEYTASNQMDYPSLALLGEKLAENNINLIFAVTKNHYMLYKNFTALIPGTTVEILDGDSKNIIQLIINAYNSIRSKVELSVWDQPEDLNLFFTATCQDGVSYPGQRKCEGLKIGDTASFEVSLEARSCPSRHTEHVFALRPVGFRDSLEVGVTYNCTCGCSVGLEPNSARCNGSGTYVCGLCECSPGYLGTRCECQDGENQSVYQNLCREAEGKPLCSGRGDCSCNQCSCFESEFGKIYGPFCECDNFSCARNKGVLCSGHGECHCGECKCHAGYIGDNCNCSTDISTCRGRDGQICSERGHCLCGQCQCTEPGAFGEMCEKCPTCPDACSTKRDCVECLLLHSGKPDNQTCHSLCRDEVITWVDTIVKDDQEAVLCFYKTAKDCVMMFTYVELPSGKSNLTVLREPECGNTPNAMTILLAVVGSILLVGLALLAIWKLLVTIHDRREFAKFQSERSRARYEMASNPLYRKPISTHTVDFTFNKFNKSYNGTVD

[7] = molecular target: T7, αvβ8 integrin on A375Ppuro cells (UniProt P06756 31-1048; P26012 43-769); assay: flow cytometry on A375Ppuro cells, which express αvβ8
T7 construct: whole, on cells
T7 sequence (P06756 31-1048, chain 1 of 2): as the sequence (P06756 31-1048, chain 1 of 2) above
T7 sequence (P26012 43-769, chain 2 of 2): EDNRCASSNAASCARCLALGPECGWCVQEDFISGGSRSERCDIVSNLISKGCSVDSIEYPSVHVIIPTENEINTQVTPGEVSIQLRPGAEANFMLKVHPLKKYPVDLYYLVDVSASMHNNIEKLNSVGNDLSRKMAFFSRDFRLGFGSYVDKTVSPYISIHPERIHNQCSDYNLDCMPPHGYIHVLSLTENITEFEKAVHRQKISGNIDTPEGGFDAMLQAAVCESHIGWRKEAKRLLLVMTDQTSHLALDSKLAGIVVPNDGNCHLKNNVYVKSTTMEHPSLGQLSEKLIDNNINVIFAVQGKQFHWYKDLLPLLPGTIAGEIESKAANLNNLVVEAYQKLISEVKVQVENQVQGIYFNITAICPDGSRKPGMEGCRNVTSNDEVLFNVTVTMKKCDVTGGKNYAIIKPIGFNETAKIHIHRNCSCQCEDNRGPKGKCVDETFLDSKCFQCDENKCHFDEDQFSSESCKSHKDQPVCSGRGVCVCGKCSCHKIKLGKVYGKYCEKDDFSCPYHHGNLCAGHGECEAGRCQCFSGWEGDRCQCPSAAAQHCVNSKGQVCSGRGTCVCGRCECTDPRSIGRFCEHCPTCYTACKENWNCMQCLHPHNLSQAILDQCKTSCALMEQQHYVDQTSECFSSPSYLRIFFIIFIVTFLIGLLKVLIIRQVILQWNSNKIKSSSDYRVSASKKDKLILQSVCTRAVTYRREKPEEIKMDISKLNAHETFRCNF

[8] = molecular target: T8, carcinoembryonic antigen, immobilized (UniProt P06731 35-685); assay: ELISA on immobilized CEA, rabbit anti-MFE detection, three concentrations
T8 construct: also called CEA; immobilized CEA
T8 sequence: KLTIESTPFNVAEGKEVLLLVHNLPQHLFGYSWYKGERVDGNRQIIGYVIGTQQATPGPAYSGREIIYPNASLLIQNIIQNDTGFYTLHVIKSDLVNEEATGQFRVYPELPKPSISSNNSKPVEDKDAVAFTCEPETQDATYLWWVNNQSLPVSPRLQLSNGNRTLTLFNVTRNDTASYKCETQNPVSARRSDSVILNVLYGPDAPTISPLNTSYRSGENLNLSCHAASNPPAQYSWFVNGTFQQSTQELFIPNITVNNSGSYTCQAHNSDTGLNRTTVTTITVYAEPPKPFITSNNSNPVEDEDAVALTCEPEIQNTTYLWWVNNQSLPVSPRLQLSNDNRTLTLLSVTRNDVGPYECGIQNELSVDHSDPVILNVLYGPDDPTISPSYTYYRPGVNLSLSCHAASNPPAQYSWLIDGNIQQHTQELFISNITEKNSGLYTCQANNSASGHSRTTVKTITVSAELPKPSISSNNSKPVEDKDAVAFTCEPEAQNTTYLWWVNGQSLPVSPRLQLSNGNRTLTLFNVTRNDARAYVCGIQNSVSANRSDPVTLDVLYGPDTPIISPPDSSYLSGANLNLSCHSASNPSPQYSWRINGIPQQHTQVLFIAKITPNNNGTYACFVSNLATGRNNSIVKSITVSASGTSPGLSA

T1 sequence (P06756 31-992, chain 1 of 2): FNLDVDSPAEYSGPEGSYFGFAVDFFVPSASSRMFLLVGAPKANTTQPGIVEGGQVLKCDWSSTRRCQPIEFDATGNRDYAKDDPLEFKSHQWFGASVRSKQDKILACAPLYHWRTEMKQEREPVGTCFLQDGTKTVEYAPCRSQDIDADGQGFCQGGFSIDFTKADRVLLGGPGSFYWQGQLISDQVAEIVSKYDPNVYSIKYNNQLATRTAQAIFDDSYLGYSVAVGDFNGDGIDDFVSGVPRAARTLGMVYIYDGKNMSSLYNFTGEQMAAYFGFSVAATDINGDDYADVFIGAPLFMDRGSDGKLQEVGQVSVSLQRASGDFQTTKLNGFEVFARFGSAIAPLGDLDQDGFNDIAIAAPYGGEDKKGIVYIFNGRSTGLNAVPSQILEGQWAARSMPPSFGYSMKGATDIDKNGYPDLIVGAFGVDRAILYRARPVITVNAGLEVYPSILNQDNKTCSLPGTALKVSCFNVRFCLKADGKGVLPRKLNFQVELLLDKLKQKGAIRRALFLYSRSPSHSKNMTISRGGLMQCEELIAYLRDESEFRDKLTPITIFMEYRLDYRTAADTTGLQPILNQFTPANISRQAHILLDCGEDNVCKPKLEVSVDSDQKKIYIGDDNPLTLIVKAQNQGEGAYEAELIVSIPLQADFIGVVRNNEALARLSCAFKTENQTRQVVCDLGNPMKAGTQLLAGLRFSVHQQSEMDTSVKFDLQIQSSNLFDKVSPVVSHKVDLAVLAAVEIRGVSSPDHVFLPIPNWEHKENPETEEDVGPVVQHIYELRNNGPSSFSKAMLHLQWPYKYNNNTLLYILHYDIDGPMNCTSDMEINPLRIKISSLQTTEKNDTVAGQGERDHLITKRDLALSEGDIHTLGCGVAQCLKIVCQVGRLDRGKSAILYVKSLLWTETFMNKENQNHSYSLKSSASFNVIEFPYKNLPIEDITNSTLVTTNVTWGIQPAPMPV
T1 sequence (P18564 22-709, chain 2 of 2): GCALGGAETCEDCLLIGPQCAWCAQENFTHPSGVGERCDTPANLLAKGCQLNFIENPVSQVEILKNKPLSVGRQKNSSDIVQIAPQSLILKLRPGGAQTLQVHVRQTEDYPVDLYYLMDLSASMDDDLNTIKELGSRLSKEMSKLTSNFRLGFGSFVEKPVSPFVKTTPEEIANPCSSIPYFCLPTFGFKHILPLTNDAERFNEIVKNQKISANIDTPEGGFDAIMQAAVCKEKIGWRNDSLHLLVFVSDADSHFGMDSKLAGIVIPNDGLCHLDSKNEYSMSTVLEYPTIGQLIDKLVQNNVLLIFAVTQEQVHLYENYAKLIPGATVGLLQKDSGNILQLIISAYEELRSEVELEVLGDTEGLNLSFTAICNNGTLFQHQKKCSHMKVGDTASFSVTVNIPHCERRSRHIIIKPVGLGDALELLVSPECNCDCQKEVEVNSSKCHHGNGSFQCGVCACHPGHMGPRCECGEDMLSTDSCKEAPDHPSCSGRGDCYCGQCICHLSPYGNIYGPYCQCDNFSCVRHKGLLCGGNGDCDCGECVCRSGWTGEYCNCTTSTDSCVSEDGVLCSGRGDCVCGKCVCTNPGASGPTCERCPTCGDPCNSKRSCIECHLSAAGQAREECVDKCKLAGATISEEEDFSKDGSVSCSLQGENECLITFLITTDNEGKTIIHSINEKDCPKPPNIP

B1: MFE-23 scFv (scFv)
scFv: QVKLQQSGAELVRSGTSVKLSCTASGFNIKDSYMHWLRQGPEQGLEWIGWIDPENGDTEYAPKFQGKATFTTDTSSNTAYLQLSSLTSEDTAVYYCNEGTPTGPYYFDYWGQGTTVTVSSGGGGSGGGGSGGGGSENVLTQSPAIMSASPGEKVTITCSASSSVSYMHWFQQKPGTSPKLWIYSTSNLASGVPARFSGSGSGTSYSLTISRMEAEDAATYYCQQRSSYPLTFGAGTKLELKRAAAHHHHHH
notes: also called parent MFE
B1: no binding (tested: 10 µg/ml) [1].

B2: NFEVP1 (scFv)
scFv: QVKLQQSGAELVRSGTSVKLSCTASGFNIKDSYMHWLRQGPEQGLEWIGWIDPENGDTEYAPKFQGKATFTTDTSSNTAYLQLSSLTSEDTAVYYCNEGTPTAVPNLRGDLQVLAQKVAGPYPFDYWGQGTTVTVSSGGGGSGGGGSGGGGSENVLTQSPAIMSASPGEKVTITCSASSSVSYMHWFQQKPGTSPKLWIYSTSNLASGVPARFSGSGSGTSYSLTISRMEAEDAATYYCQQRSSYPLTFGAGTKLELKRAAAHHHHHH
B2: no binding (tested: 50 µg/ml) [2]; no binding (tested: 20 µg/ml) [3]; no binding [4]. B2: no binding [5]; no binding [6]; no binding [7]. B2: no binding [8].
